Here are results for 48 sequences from the Immune Epitope Database (IEDB).

The Kd is the concentration at which binding is half-saturated.

Some targets named below: HLA-A*33:01; HLA-A*31:01; HLA-A*11:01; HLA-A*03:01; HLA-A*68:01.
Holding throughout (test): IEDB peptide-MHC binding, purified MHC/competitive/radioactivity; filed as Kd, often an IC50 or EC50 that approximates it; ≥ and ≤ were set here for values at or beyond the usual limits of such assays
Setting [1] is: source organism: Vaccinia virus WR.
The mark [2] stands for this setting: source organism: Mammarenavirus guanaritoense.
Where [3] appears, read: source organism: Dengue virus 3 Martinique/1243/1999.
The mark [4] stands for this setting: source organism: Dengue virus 4 Philippines/H241/1956.
[5] abbreviates: source organism: Mammarenavirus machupoense.
Where [6] appears, read: source organism: Dengue virus 2 Jamaica/1409/1983.
The mark [7] stands for this setting: source organism: Dengue virus 1 Brazil/97-11/1997.
Setting [8] is: source organism: SARS coronavirus Tor2.
[9] abbreviates: source organism: Lymphocytic choriomeningitis virus (strain Armstrong).
Setting [10] is: source organism: Dengue virus 1 Singapore/S275/1990.

Take TLDTMDDMKK: the Kd with HLA-A*33:01 (setting [1]) is at least 70000 nM; with HLA-A*31:01 (setting [1]) it was at least 30200 nM; with HLA-A*11:01 (setting [1]), 287 nM; in the experiment with HLA-A*03:01 (setting [1]), 762 nM; with HLA-A*68:01 (setting [1]) it was 2150 nM.
LLRHYYNKR: the dissociation constant Kd in the experiment with HLA-A*33:01 (setting [1]) turned out to be 51.3 nM; with HLA-A*31:01 (setting [1]) it was 1.68 nM; with HLA-A*11:01 (setting [1]), 833 nM; with HLA-A*03:01 (setting [1]), 3020 nM; with HLA-A*68:01 (setting [1]), 2520 nM.
On to SIVLHIQLEH, for which the dissociation constant Kd with HLA-A*33:01 (setting [2]) was 8100 nM; in the experiment with HLA-A*31:01 (setting [2]), 11800 nM; with HLA-A*11:01 (setting [2]) it was 1070 nM; with HLA-A*03:01 (setting [2]) it was 1460 nM; with HLA-A*68:01 (setting [2]) it was at least 22100 nM.
Consider NMLSIINKR, for which the figures for the Kd in the experiment with HLA-A*33:01 (setting [3]) and in the experiment with HLA-A*31:01 (setting [3]) were 23 nM and 42.1 nM, respectively.
For KWLKECGVDR, the Kd with HLA-A*31:01 (setting [4]) worked out at 364 nM.
For the sequence CQFDHVNTLH, the Kd was 1930 nM with HLA-A*31:01 (setting [5]), 8740 nM with HLA-A*11:01 (setting [5]), 18400 nM with HLA-A*03:01 (setting [5]) and 9280 nM with HLA-A*68:01 (setting [5]).
Regarding DVFFIPPEK, the Kd with HLA-A*68:01 (source organism: Dengue virus 2 16681-PDK53) amounted to 3.62 nM.
LLVWHTWQK: the Kd with HLA-A*03:01 (setting [3]) turned out to be 59 nM.
Take GMLQGRGPLK: the Kd with HLA-A*11:01 (setting [6]) was determined as 37.9 nM; in the experiment with HLA-A*03:01 (setting [6]) it was 6.17 nM.
For ATRLENIMWK, the Kd was 6.34 nM with HLA-A*11:01 (setting [7]) and 42.3 nM with HLA-A*03:01 (setting [7]).
For the sequence MVLLIPEPEK, the dissociation constant (Kd) with HLA-A*11:01 (setting [3]) turned out to be 115 nM.
In the case of INMLKRVRNR, the Kd with HLA-A*31:01 (setting [3]) came to 1570 nM.
Consider KILDAVVAQE, for which, in the experiment with HLA-A*03:01 (source organism: Homo sapiens), the Kd is 847 nM.
For the sequence TAIFLTTLSR, the values for the Kd with HLA-A*11:01 (setting [6]) and with HLA-A*68:01 (setting [6]) were 298 nM and 2.83 nM, respectively.
On to QVAINQVRR, for which, in the experiment with HLA-A*68:01 (setting [7]), the dissociation constant (Kd) amounted to 104 nM.
Take AGLAFSLMK: the Kd in the experiment with HLA-A*11:01 (setting [7]) stood at 11.2 nM.
Take AARGYISTR: the Kd in the experiment with HLA-A*33:01 (setting [6]) is 315 nM; with HLA-A*31:01 (setting [6]) it was 11.1 nM.
AIDAYPLTK: the Kd is at least 44600 nM with HLA-A*33:01 (setting [8]), 8890 nM with HLA-A*31:01 (setting [8]), 11.6 nM with HLA-A*11:01 (setting [8]) and 6970 nM with HLA-A*68:01 (setting [8]).
For TFTNDSIISH, the Kd is 8720 nM in the experiment with HLA-A*33:01 (setting [9]), at least 64700 nM with HLA-A*31:01 (setting [9]), at least 47000 nM with HLA-A*03:01 (setting [9]) and 6850 nM with HLA-A*68:01 (setting [9]).
With RLCTREEFTK, the dissociation constant Kd in the experiment with HLA-A*03:01 (setting [3]) stood at 76.6 nM.
With NMLKRVRNR, the dissociation constant (Kd) with HLA-A*33:01 (setting [3]) turned out to be 109 nM.
Take ATKSEHTGR: in the experiment with HLA-A*31:01 (setting [3]), the Kd was determined as 1.85 nM.
As for YMTSMKRFK, in the experiment with HLA-A*03:01 (setting [7]), the Kd is 897 nM.
Take EVTNPAVLR: the Kd with HLA-A*33:01 (setting [7]) stood at 91.7 nM; with HLA-A*68:01 (setting [7]), 40 nM.
Consider EFKEFAAGR, for which the dissociation constant (Kd) with HLA-A*68:01 (setting [6]) was determined as 594 nM.
For the sequence EFGKAKGSR, in the experiment with HLA-A*33:01 (setting [3]), the Kd was found to be 125 nM.
In the case of KVVQHENLK, in the experiment with HLA-A*03:01 (source organism: Dengue virus 3 Singapore/8120/1995), the equilibrium dissociation constant (Kd) was found to be 49 nM.
For the sequence GVTLFFLSGK, the Kd stood at 23.8 nM with HLA-A*11:01 (setting [7]) and 13.1 nM in the experiment with HLA-A*03:01 (setting [7]).
As for RAGRVIDPR, in the experiment with HLA-A*31:01 (setting [4]), the Kd amounted to 29.1 nM.
Regarding VTLFFLSGK, the Kd in the experiment with HLA-A*11:01 (setting [7]) was found to be 12.4 nM; in the experiment with HLA-A*03:01 (setting [7]), 3.82 nM.
For the sequence IMKSVGTGK, the dissociation constant Kd in the experiment with HLA-A*03:01 (setting [3]) came to 4.95 nM.
For LGMMVLKIVR, the equilibrium dissociation constant (Kd) in the experiment with HLA-A*33:01 (setting [6]) was found to be 1910 nM.
YMIGQTGIQR: the dissociation constant Kd in the experiment with HLA-A*33:01 (setting [4]) worked out at 79.2 nM; in the experiment with HLA-A*68:01 (setting [4]) it was 98.3 nM.
FLMSGKGIGK: the results for the dissociation constant (Kd) with HLA-A*11:01 (setting [6]) and with HLA-A*03:01 (setting [6]) were 99.8 nM and 42.6 nM, respectively.
Take ATMLDVDLR: the Kd with HLA-A*11:01 (setting [10]) was 41.5 nM.
As to ITANPIVTDK, the Kd came to 83 nM in the experiment with HLA-A*11:01 (setting [7]) and 40.5 nM in the experiment with HLA-A*68:01 (setting [7]).
For the sequence VFKEKVDTR, the Kd with HLA-A*33:01 (setting [3]) was determined as 63.1 nM.
In the case of LIGANYLGK, the Kd is at least 77700 nM with HLA-A*33:01 (setting [8]), 8930 nM in the experiment with HLA-A*31:01 (setting [8]) and 10900 nM in the experiment with HLA-A*68:01 (setting [8]).
With AIGTSITQK, the results for the Kd with HLA-A*11:01 (setting [7]) and with HLA-A*03:01 (setting [7]) were 60.9 nM and 9.33 nM, respectively.
For ILARWGSFK, the Kd with HLA-A*11:01 (setting [10]) stood at 77.8 nM; with HLA-A*03:01 (setting [10]), 2.13 nM.
For the sequence NVTEVKGYTK, the dissociation constant (Kd) in the experiment with HLA-A*68:01 (setting [4]) was 40.6 nM.
Take KLRPKWLDAR: in the experiment with HLA-A*31:01 (setting [4]), the dissociation constant Kd stood at 2.11 nM.
On to LSSRATWAK, for which the dissociation constant Kd in the experiment with HLA-A*11:01 (setting [4]) is 56.5 nM.
For HMIVGRQEK, the Kd with HLA-A*03:01 (setting [6]) stood at 66.6 nM.
As to ALTALNDMGK, the Kd in the experiment with HLA-A*11:01 (setting [6]) worked out at 1370 nM; in the experiment with HLA-A*03:01 (setting [6]), 1290 nM.
For MFEATARGAR, the dissociation constant Kd with HLA-A*33:01 (setting [7]) came to 22.3 nM.
For the sequence YMWQVKTQR, the dissociation constant Kd with HLA-A*33:01 (setting [4]) was determined as 1.3 nM; in the experiment with HLA-A*31:01 (setting [4]) it was 1.41 nM.
For the sequence TTETPTWNR, the Kd came to 1.28 nM with HLA-A*33:01 (setting [3]) and 14.5 nM with HLA-A*68:01 (setting [3]).
